Data as given in article PMC3867001.

Target: HIV-1 M group N-terminal capsid domain (HIV-1 M group) (UniProt P12493)
Assay: ITC

Row | Substance | Kd | dH
1 | Cyclophilin A (unacetylated, recombinant) (from UniProt P62937 1-165) (enzyme) | 7.5 µM | -7.4 kcal/mol
2 | Lys125-acetylated Cyclophilin A (recombinant) (from UniProt P62937 1-165) (enzyme) | 6.1 µM | -4.6 kcal/mol
